Experiments:
[1] = target: Granulocyte-Macrophage Colony-Stimulating Factor (GM-CSF) (UniProt P04141)
[2] = test system: T1, peptide with the LNLS sequence from GM-CSF
T1 sequence: LNLS

[3] = target: Interferon-gamma (IFNγ) (UniProt P01579)
[4] = test system: T2, peptide with the sequence TNYS found in IFNγ
T2 sequence: TNYS

[5] = test system: constant region (Fc) of a human immunoglobulin antibody (IgG1) [IgG part: P01857]
[6] = test system: T3, peptide with the YNST sequence from Fc
T3 sequence: YNST

Chain of Interferon-gamma (IFNγ) (P01579 24-166): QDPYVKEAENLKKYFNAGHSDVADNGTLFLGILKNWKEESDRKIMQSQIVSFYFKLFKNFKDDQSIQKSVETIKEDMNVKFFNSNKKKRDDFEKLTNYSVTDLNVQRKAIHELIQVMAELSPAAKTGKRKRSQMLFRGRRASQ
Chain of Granulocyte-Macrophage Colony-Stimulating Factor (GM-CSF) (P04141 18-144): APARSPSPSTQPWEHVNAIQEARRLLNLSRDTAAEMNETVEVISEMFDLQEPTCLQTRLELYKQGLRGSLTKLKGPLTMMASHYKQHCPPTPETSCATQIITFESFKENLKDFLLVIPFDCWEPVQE

ApQ mutant T438S
protein modification (glycosylation), LC-qTOF of tryptic peptides [1]: increase the modification of the therapeutic proteins IFNγ GM-CSF, and Fc using the A469I, T438S, and H495D mutants of ApQ, respectively
peptide modification (glycosylation), SAMDI-MS [2]: T438S glycosylated the LNLS sequence from GM-CSF more efficiently than did ApQ

ApQ mutant A469I
protein modification (glycosylation), LC-qTOF of tryptic peptides [3]: increase the modification of the therapeutic proteins IFNγ GM-CSF, and Fc using the A469I, T438S, and H495D mutants of ApQ, respectively
peptide modification (glycosylation), SAMDI-MS [4]: the purified A469I mutant glycosylated the sequence TNYS found in IFNγ more efficiently than did ApQ

Q469A mutant of Actinobacillus pleuropneumoniae N-glycosyltransferase (ApNGT)
protein modification (glycosylation), LC-qTOF of tryptic peptides [3]: ApQ showed no detectable modification of IFNγ (marked as "ND")
glycosylation efficiency of Fc, 2 µM ApQ added after CFPS [5]: the glycosylation efficiency of Fc was increased from 15% to 46%
glycosylation efficiency of Fc, 2 µM ApQ added before CFPS [5]: the glycosylation efficiency of Fc was increased from 15% to 46%

ApQ mutant H495D
peptide modification (glycosylation), SAMDI-MS [6]: H495D glycosylated the YNST sequence from Fc more efficiently than did ApQ
modification of Fc relative to ApQ, 2 µM H495D added before CFPS [5]: significantly increased the modification of Fc to 60% or by 1.3-fold
modification of Fc, 2 µM H495D added before CFPS [5]: significantly increased the modification of Fc to 60% or by 1.3-fold
modification of Fc, 5 µM H495D during CFPS [5]: 80% modification of Fc could be achieved
